How the values were obtained:
[1] = biological target: T1, SbF2H (CYP93G3; SbCYP93G3) (Sorghum bicolor, UniProt C5X6I4); assay: E. coli whole-cell conversion, LC-MS of downstream vitexin/isovitexin; type: cell-based; conditions: coexpressed AtCPR2 and PhUGT708A43; naringenin made in vivo, 22 °C
T1 construct: gene SORBI_3002G000400; N-terminal transmembrane region cut (borders not in text) and replaced with 2B1dH tag; codon-optimized; in E. coli with AtCPR2
T1 sequence (C5X6I4 42-541 limits assumed): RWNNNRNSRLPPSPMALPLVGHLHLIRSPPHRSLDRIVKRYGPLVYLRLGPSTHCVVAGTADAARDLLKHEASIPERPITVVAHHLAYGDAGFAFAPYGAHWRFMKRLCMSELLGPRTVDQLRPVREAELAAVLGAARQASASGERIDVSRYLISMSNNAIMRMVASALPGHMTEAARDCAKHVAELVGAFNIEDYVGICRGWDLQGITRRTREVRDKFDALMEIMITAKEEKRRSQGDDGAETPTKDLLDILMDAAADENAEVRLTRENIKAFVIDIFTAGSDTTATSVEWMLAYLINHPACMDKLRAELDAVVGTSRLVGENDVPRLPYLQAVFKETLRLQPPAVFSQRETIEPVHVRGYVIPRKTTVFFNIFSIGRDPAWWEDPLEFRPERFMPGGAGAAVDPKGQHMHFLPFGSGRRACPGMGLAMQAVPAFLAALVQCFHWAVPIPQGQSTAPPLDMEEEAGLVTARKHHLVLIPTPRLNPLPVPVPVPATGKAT

[2] = substrate: O=C(CCc1ccc(O)cc1)c1c(O)cc(O)cc1O; assay: HPLC of C-glucoside product, Michaelis-Menten fit; type: biochemical, Phyllostachys edulis; conditions: 400 μM UDP-glucose, 100 mM NaCl, 20 mM Tris-HCl pH 8.0, 37 °C, 20 min
[3] = substrate: O=C1CC(O)(c2ccc(O)cc2)Oc2cc(O)cc(O)c21; assay: HPLC of C-glucoside product, Michaelis-Menten fit; type: biochemical, Phyllostachys edulis; conditions: 400 μM UDP-glucose, 100 mM NaCl, 20 mM Tris-HCl pH 8.0, 37 °C, 20 min

Molecule | E. coli whole-cell conversion, LC-MS of downstream vitexin/isovitexin [1] | Km [2] [µM] | Km [3] [µM]
O=C1C[C@@H](c2ccc(O)cc2)Oc2cc(O)cc(O)c21 [Nar, naringenin] | truncated ZmF2H/AtCPR2 (sCZ2) and truncated SbF2H/AtCPR2 (sCZ29) |  | 
PhUGT708A43 (PhCGT1) (Phyllostachys edulis) (protein, full-length ORF, pET28a (pCZ86), recombinant from E. coli, purified) MPTSGGRTGDRPHVILLPSAGMGHLVPFSRLAVALSSGHGCDVSVVAVLPTVSAAESRHLQGLLDASPAVRRLDLHLAPFDESEFPGADPFFLRFEAMRRSAPLLGPLLADTGASALVTDIALASVVIPVAKEIHLPCYVLFTASAAMLSFCAYFPTYLDTNAGRVVGDVDIPGVYRIPKASIPQALHDPNHLFTRQFVANGQDLAKADGVLVNTFDALELEAVTALRQGSVAAGFPPVFSVGPLVTVNLPAGEAAKESGNDYMYWLDAQPAQSVVYVSFGSRKAISRDQVRELAIGLEASGQPFLWVVKSTVVDRDDSAELSELLGEGFLERVQGQGFVTKAWVEQEEVLKHESIGLFISHCGWNSVTEAAASGVPVLAWPRFGDQRVNAGVVARGGLGVWVERWSWEGEEDVVSGEEIAEKVKAVMADETVRKKAASVGEAAVKEFADGGTSYRSLTEFVRRCRDLAVLD |  | 15.83 ± 6.98 | 1.75 ± 0.66

Source: paper PMC7060329, “Pathway-specific enzymes from bamboo and crop leaves biosynthesize anti-nociceptive C-glycosylated flavones” (Communications Biology, 2020)
